This note sets out measurements from US9908923.

This assay concerns the target CXCR4 (full-length receptor) (UniProt P61073). Nature of the assay: cell-based or functional assay.

Sequence of CXCR4 (full-length receptor) (P61073 whole entry): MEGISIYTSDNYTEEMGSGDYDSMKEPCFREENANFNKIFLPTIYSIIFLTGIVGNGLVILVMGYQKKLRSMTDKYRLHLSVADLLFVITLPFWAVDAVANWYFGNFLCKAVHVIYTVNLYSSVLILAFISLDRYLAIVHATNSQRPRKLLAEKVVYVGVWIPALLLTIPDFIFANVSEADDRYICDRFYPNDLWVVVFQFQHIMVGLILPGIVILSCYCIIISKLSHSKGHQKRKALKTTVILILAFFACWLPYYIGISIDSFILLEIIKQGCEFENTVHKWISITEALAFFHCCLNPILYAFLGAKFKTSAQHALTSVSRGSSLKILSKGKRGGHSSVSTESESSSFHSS

In the case of “CXCL12 Asn33 to arginine mutant (from UniProt P48061 22-89) (ligand)”, the calcium flux EC50 against unmutated CXCL12 was found to be 6 fold.

As to “CXCL12 Asn33 to glutamine mutant (from UniProt P48061 22-89) (ligand)”, the calcium flux EC50 against unmutated CXCL12 worked out at 6 fold. As for “CXCL12 Asn33 to alanine mutant (from UniProt P48061 22-89) (ligand)”, the figure is 6 fold.
